Results taken from paper doi:10.1101/2021.05.05.442785 (bioRxiv, 2021).

B1: S-adenosylmethionine lyase (SAMase) of bacteriophage T3, C-terminal His-tagged (enzyme, UniProt P07693 1-152, looked up)
chain: MIFTKEPAHVFYVLVSAFRSNLCDEVNMSRHRHMVSTLRAAPGLYGSVESTDLTGCYREAISSAPTEEKTVRVRCKDKAQALNVARLACNEWEQDCVLVYKSQTHTAGLVYAKGIDGYKAERLPGSFQEVPKGAPLQGCFTIDEFGRRWQVQ
B2: E. coli methionine S-adenosyltransferase (MAT), recombinant (enzyme)
chain: AKHLFTSESVSEGHPDKIADQISDAVLDAILEQDPKARVACETYVKTGMVLVGGEITTSAWVDIEEITRNTVREIGYVHSDMGFDANSCAVLSAIGKQSPDINQGVDRADPLEQGAGDQGLMFGYATNETDVLMPAPITYAHRLVQRQAEVRKNGTLPWLRPDAKSQVTFQYDDGKIVGIDAVVLSTQHSEEIDQKSLQEAVMEEIIKPILPAEWLTSATKFFINPTGRFVIGGPMGDCGLTGRKIIVDTYGGMARHGGGAFSGKDPSKVDRSAAYAARYVAKNIVAAGLADRCEIQVSYAIGVAEPTSIMVETFGTEKVPSEQLTLLVREFFDLRPYGLIQMLDLLHPIYKETAAYGHFGREHFPWEKTDKAQLLRDAAGLK

Key:
[1] = target: B2; test: cryo-EM structure
cryo-EM structure = target: the molecule itself; test: cryo-EM structure

Binder	binding result [1]	stoichiometry N (cryo-EM structure)
B1	binds	2
B2	–	4
